# Measured values reported in paper PMC9001700.
# Where two headings read alike, the source gives them in different places.
# Key:
# Assay in all cases: BLI
# [1] = molecular target: HKU1 stem helix peptide (HCoV-HKU1)
# [2] = molecular target: MERS-CoV stem helix peptide (MERS-CoV)
# [3] = molecular target: OC43 stem helix peptide (HCoV-OC43)
# [4] = molecular target: SARS-CoV-2 stem helix peptide 1145-[…]-1167 (SARS-CoV-2)
# [5] = molecular target: HCoV-HKU1 stem helix peptide (HCoV-HKU1)
# [6] = molecular target: HCoV-OC43 stem helix peptide (HCoV-OC43)
# [7] = molecular target: MERS-CoV stem helix peptide (MERS-CoV); remark: listed apart in the source
# [8] = molecular target: SARS-CoV-2 stem helix peptide 1145-1167 (SARS-CoV-2)
substance,measurement,setting,value
CV3-25 Fab,Kd,[1],0.031 µM
same,koff,[1],0.000676 s⁻¹
same,kon,[1],23000 M⁻¹ s⁻¹
same,Kd,[2],0.0204 µM
same,koff,[2],0.000669 s⁻¹
same,kon,[2],33000 M⁻¹ s⁻¹
same,Kd,[3],0.0393 µM
same,koff,[3],0.000613 s⁻¹
same,kon,[3],17000 M⁻¹ s⁻¹
same,Kd,[4],0.00523 µM
same,koff,[4],0.000159 s⁻¹
same,kon,[4],30000 M⁻¹ s⁻¹
same,Kd,[5],0.031 µM
same,Kd,[6],0.04 µM
same,Kd,[7],0.02 µM
same,Kd,[8],0.0052 µM
